No end group written: not given here.
B1: RSK1 phospho-PBM peptide RSK1_-1P (peptide)
peptide: RRVRKLPSTTL
modifications: not fully specified (residue 10)
notes: source: synthetic peptide (in-house, Fmoc)
B2: RSK1 phospho-PBM peptide RSK1_-2P (peptide)
peptide: RRVRKLPSTTL
modifications: not fully specified (residue 9)
notes: as for B1
B3: fluorescently labeled HSPB6 phosphopeptide (fpB6) (peptide)
peptide: WLRRASAPLPGLK
modifications: also: phosphorylation, site not given here, fluorescent label, unspecified
notes: also called FITC-labeled HSPB6 phosphopeptide; tracer; source: synthetic peptide, amino-terminal FITC labeling

Molecular target: T1, full-length human 14-3-3β fused to the C terminus of MBP (human, UniProt P31946 1-246)
T1 construct: not shown: MBP (crystallisable mutant), N-terminal, kept
T1 sequence (looked up): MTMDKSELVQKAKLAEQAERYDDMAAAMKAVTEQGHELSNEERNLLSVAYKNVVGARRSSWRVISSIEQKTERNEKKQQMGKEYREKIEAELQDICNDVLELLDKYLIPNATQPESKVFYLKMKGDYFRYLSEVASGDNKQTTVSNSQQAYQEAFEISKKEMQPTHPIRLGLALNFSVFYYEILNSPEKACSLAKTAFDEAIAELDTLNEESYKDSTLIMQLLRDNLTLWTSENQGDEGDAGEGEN
Assay: fluorescence polarisation
Settings: both partners purified

| Binder | binding result |
| --- | --- |
| B1 | binds |
| B2 | binds |
| B3 | binds |

Molecular target: T2, full-length human 14-3-3γ fused to the C terminus of MBP (human, UniProt P61981 1-247)
T2 construct: not shown: MBP (crystallisable mutant), N-terminal, kept
T2 sequence (looked up): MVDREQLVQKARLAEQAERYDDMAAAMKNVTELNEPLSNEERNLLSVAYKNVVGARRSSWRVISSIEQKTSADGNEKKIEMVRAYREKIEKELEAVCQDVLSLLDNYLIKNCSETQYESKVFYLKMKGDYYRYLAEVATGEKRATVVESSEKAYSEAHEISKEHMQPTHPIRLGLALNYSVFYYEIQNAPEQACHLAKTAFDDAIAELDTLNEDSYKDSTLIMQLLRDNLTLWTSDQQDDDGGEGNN
Assay: fluorescence polarisation
Settings: both partners purified

| Binder | binding result |
| --- | --- |
| B1 | binds |
| B2 | binds |
| B3 | binds |

Molecular target: T3, full-length human 14-3-3ε fused to the C terminus of MBP (human, UniProt P62258 1-255)
T3 construct: not shown: MBP (crystallisable mutant), N-terminal, kept
T3 sequence (looked up): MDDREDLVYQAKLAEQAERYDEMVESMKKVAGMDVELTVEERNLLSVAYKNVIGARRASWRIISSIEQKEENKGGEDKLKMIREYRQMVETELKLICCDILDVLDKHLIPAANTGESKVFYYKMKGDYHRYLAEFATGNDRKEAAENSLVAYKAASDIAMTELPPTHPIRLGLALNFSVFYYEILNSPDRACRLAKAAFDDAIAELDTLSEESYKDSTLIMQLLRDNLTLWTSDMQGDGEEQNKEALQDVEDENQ
Assay: fluorescence polarisation
Settings: both partners purified

| Binder | binding result |
| --- | --- |
| B1 | binds |
| B2 | binds |
| B3 | binds |

Molecular target: T4, full-length human 14-3-3ζ fused to the C terminus of MBP (human, UniProt P63104 1-245)
T4 construct: not shown: MBP (crystallisable mutant), N-terminal, kept
T4 sequence (looked up): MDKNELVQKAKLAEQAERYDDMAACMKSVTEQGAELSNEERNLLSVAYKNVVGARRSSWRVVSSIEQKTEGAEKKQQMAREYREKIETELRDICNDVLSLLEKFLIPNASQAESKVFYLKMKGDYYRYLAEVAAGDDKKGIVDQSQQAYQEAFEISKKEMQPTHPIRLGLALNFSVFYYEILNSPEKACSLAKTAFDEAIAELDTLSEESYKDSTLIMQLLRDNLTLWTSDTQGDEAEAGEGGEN
Assay: fluorescence polarisation
Settings: both partners purified

| Binder | binding result |
| --- | --- |
| B1 | binds |
| B2 | binds |
| B3 | binds |

Molecular target: T5, full-length human 14-3-3η fused to the C terminus of MBP (human, UniProt Q04917 1-246)
T5 construct: not shown: MBP (crystallisable mutant), N-terminal, kept
T5 sequence (looked up): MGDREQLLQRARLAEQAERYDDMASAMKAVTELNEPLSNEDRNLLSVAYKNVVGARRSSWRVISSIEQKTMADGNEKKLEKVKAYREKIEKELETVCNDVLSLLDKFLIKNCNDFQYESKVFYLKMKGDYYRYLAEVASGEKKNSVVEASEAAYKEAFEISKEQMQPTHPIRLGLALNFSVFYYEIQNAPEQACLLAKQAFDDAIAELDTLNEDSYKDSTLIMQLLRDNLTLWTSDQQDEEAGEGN
Assay: fluorescence polarisation
Settings: both partners purified

| Binder | binding result |
| --- | --- |
| B1 | binds |
| B2 | binds |
| B3 | binds |

Molecular target: T6, full-length human 14-3-3σ fused to the C terminus of MBP (human, UniProt P31947 1-248)
T6 construct: not shown: MBP (crystallisable mutant), N-terminal, kept
T6 sequence (looked up): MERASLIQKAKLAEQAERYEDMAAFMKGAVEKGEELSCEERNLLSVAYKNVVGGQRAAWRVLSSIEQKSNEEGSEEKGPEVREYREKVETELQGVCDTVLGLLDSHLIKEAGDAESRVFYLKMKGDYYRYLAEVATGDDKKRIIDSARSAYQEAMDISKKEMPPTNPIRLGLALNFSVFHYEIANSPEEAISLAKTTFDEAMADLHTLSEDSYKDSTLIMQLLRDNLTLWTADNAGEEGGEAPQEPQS
Assay: fluorescence polarisation
Settings: both partners purified

| Binder | binding result |
| --- | --- |
| B1 | binds |
| B2 | binds |
| B3 | binds |

Molecular target: T7, full-length human 14-3-3τ fused to the C terminus of MBP (human, UniProt P27348 1-245)
T7 construct: not shown: MBP (crystallisable mutant), N-terminal, kept
T7 sequence (looked up): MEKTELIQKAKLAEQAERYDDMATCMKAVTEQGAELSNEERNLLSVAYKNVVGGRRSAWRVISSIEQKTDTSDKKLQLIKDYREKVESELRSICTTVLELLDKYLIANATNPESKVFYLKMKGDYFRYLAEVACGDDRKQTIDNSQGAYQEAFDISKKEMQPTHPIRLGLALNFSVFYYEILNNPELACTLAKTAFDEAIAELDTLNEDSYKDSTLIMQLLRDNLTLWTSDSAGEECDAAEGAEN
Assay: fluorescence polarisation
Settings: both partners purified

| Binder | binding result |
| --- | --- |
| B1 | binds |
| B2 | binds |
| B3 | binds |
